“And” between values parts separate entries of the source, which are not always exact repeats. Equal entries are not always repeated.

Drawing on article doi:10.1101/2023.02.09.527830, this text covers stoichiometry N and Kd for two substances.

Assay [1] has as its target Lassa virus Z protein, AV strain (Lassa virus (AV strain)). Kind of assay: native MS.
Assay [2] has as its target Lassa virus nucleoprotein (NP), AV strain (Lassa virus (AV strain)). Description: native MS.
The target is the same in assay [3]. Description: SEC.
Assay [4] shares this target. Kind of assay: native MS. This is another data set of the same source.
The target is the same in assay [5]. Kind of assay: negative-stain electron microscopy.

Regarding “Lassa virus Z protein, AV strain (natural protein)”, the stoichiometry N in assay [1] is under 6; in assay [2], under 3. The substance further had a Kd in assay [2] of 30 µM.
On to “Lassa virus nucleoprotein (NP), AV strain (natural protein)”, for which the stoichiometry N is 3 in assay [3]; 2 and 3 in assay [2]; 4 and 5 and 6 in assay [4]; 3 in assay [5].
